Test results as given in US20260242735A1 (UNIVERSIT T BASEL, published 2026).

How the values were obtained:
Assay in all cases: alanine scan, flow cytometry, HEK293-T;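 also: antibody binding to each alanine-substituted CD33 mutant expressed transiently in HEK293-T, read as fluorescence minus background, mean of duplicates, relative to wild-type CD33 set as 100%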
[1] = target: human CD33 T240A (human, UniProt P20138 18-364)
[2] = target: human CD33 S186A (human, UniProt P20138 18-364)
[3] = target: human CD33 N237A (human, UniProt P20138 18-364)
[4] = target: human CD33 S195A (human, UniProt P20138 18-364)
[5] = target: human CD33 A217S (human, UniProt P20138 18-364)
[6] = target: human CD33 V214A (human, UniProt P20138 18-364)
[7] = target: human CD33 D205A (human, UniProt P20138 18-364)
[8] = target: human CD33 L180A (human, UniProt P20138 18-364)
[9] = target: human CD33 L210A (human, UniProt P20138 18-364)
[10] = target: human CD33 V196A (human, UniProt P20138 18-364)
[11] = target: human CD33 Q171A (human, UniProt P20138 18-364)
[12] = target: human CD33 P189A (human, UniProt P20138 18-364)
[13] = target: human CD33 V231A (human, UniProt P20138 18-364)
[14] = target: human CD33 A219S (human, UniProt P20138 18-364)
[15] = target: human CD33 P238A (human, UniProt P20138 18-364)
human CD33 P238A, sequence (P20138 18-364 P238A limits assumed): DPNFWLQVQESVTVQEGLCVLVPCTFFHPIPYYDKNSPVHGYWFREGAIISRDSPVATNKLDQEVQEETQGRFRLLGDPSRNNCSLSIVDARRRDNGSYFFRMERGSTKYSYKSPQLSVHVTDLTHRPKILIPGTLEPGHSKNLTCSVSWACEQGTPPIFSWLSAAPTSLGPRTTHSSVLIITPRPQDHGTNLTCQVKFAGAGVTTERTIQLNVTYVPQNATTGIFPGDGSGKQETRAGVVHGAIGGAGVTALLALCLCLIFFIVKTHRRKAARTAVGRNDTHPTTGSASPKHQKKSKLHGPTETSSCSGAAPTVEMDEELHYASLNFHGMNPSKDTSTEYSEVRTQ

human CD33 Q171A, sequence (P20138 18-364 Q171A limits assumed): as the sequence (P20138 18-364 P238A limits assumed) above, with Q154A, A221P counted along it
human CD33 S195A, sequence (P20138 18-364 S195A limits assumed): as the sequence (P20138 18-364 P238A limits assumed) above, with S178A, A221P counted along it
human CD33 L180A, sequence (P20138 18-364 L180A limits assumed): as the sequence (P20138 18-364 P238A limits assumed) above, with L163A, A221P counted along it
human CD33 V231A, sequence (P20138 18-364 V231A limits assumed): as the sequence (P20138 18-364 P238A limits assumed) above, with V214A, A221P counted along it
human CD33 A219S, sequence (P20138 18-364 A219S limits assumed): as the sequence (P20138 18-364 P238A limits assumed) above, with A202S, A221P counted along it
human CD33 T240A, sequence (P20138 18-364 T240A limits assumed): as the sequence (P20138 18-364 P238A limits assumed) above, with A221P, T223A counted along it
human CD33 N237A, sequence (P20138 18-364 N237A limits assumed): as the sequence (P20138 18-364 P238A limits assumed) above, with N220A, A221P counted along it
human CD33 V196A, sequence (P20138 18-364 V196A limits assumed): as the sequence (P20138 18-364 P238A limits assumed) above, with V179A, A221P counted along it
human CD33 S186A, sequence (P20138 18-364 S186A limits assumed): as the sequence (P20138 18-364 P238A limits assumed) above, with S169A, A221P counted along it
human CD33 P189A, sequence (P20138 18-364 P189A limits assumed): as the sequence (P20138 18-364 P238A limits assumed) above, with P172A, A221P counted along it
human CD33 A217S, sequence (P20138 18-364 A217S limits assumed): as the sequence (P20138 18-364 P238A limits assumed) above, with A200S, A221P counted along it
human CD33 D205A, sequence (P20138 18-364 D205A limits assumed): as the sequence (P20138 18-364 P238A limits assumed) above, with D188A, A221P counted along it
human CD33 V214A, sequence (P20138 18-364 V214A limits assumed): as the sequence (P20138 18-364 P238A limits assumed) above, with V197A, A221P counted along it
human CD33 L210A, sequence (P20138 18-364 L210A limits assumed): as the sequence (P20138 18-364 P238A limits assumed) above, with L193A, A221P counted along it

| Binder | Mean % WT Binding [1] | Mean % WT Binding [2] | Mean % WT Binding [3] | Mean % WT Binding [4] | Mean % WT Binding [5] | Mean % WT Binding [6] | Mean % WT Binding [7] | Mean % WT Binding [8] | Mean % WT Binding [9] | Mean % WT Binding [10] | Mean % WT Binding [11] | Mean % WT Binding [12] | Mean % WT Binding [13] | Mean % WT Binding [14] | Mean % WT Binding [15] |
| --- | --- | --- | --- | --- | --- | --- | --- | --- | --- | --- | --- | --- | --- | --- | --- |
| Refmab #2 (antibody, V domains shown, In the alanine scan antibodies were used as IgG or Fab) VH: QVQLVQSGAEVKKPGSSVKVSCKASGGTFSDYAISWVRQAPGQGLEWMGRIIPILGVADYAQKFQGRVTITADKSTRTAYMELSSLRSEDTAVYYCARNWADAFDIWGQGTMVTVSS VL: DIQLTQSPSSLSASVGDRVTITCRASQGISSVLAWYQQKPGKAPKLLIYDASSLESGVPSRFSGSGSGTDFTLTISSLQPEDFATYYCQQFDSSITFGQGTKLEIK | 111% | 120% | 112% | 119% | 109% | 118% | 2.8% | 118% | 98.2% | 106% | 90% | 116% | 112% | 117% | 119% |
| Refmab #3 (antibody, V domains shown, In the alanine scan antibodies were used as IgG or Fab) VH: QVQLVQSGAEVKKPGSSVKVSCKASGYTFTDYNMHWVRQAPGQGLEWIGYIYPYNGGTGYNQKFKSKATITADESTNTAYMELSSLRSEDTAVYYCARGRPAMDYWGQGTLVTVSS VL: DIQMTQSPSSLSASVGDRVTITCRASESVDNYGISFMNWFQQKPGKAPKLLIYAASNQGSGVPSRFSGSGSGTDFTLTISSLQPDDFATYYCQQSKEVPWTFGQGTKVEIK | 97.9% | 106% | 85.6% | 95.2% | 148% | 102% | 8.1% | 102% | 84% | 105% | 138% | 95.5% | 153% | 113% | 122% |
